In article PMC4240464:

Assays:
[1] = target: Fc–Evasin-4 (Rhipicephalus sanguineus); assay: SPR
[2] = target: Evasin-4–Fc (Rhipicephalus sanguineus); assay: SPR

Binder	Kd [1] [nM]	Kd [2] [nM]
CCL15 (ligand) QFTNDAETELMMSKLPLENPVVLNSFHFAADCCTSYISQSIPCSLMKSYFETSSECSKPGVIFLTKKGRQVCAKPSGPGVQDCMKKLKPYSI	0.04	0.016
CCL24 (ligand) VVIPSPCCMFFVSKRIPENRVVSYQLSSRSTCLKAGVIFTTKKGQQFCGDPKQEWVQRYMKNLDAKQKKASPRARAVAVKGPVQRYPGNQTTC	4.84	708
CCL23 (ligand) RVTKDAETEFMMSKLPLENPVLLDRFHATSADCCISYTPRSIPCSLLESYFETNSECSKPGVIFLTKKGRRFCANPSDKQVQVCMRMLKLDTRIKTRKN	0.124	0.232
CCL18 (ligand) AQVGTNKELCCLVYTSWQIPQKFIVDYSETSPQCPKPGVILLTKRGRQICADPNKKWVQKYISDLKLNA	0.083	3.63
CCL1 (ligand) KSMQVPFSRCCFSFAEQEIPLRAILCYRNTSSICSNEGLIFKLKRGKEACALDTVGWVQRHRKMLRHCPSKRK	0.276	0.097
